Test results: patent US20200239594A1 (MINERVA BIOTECHNOLOGIES, published 2020)
Blank lines part the entries; values can stand above or below the binder they belong to.

Key:
[1] = target: T1, MUC1* extracellular domain peptide (PSMGFR, primary sequence of the MUC1 growth factor receptor); experiment: ELISA on plate-adsorbed peptide; reference: refolded scFv before peptide affinity chromatography
T1 construct: Synthetic peptide adsorbed onto ELISA plates; The immunogen carried an extra C-terminal cysteine for KLH conjugation; also called MUC1* peptide; PSMGFR peptide
T1 peptide: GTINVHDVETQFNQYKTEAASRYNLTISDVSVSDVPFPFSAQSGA

[2] = target: T1, MUC1* extracellular domain peptide …; experiment: competition ELISA, peptide on plate, competitor: parent MIN-C2 antibody
Experimental: To test the ability of the Fab produced by papain digestion to compete with the parent antibody for binding to the MUC1* peptide, varying concentrations of the Fab were added. After wash steps, the ELISA was processed by standard methods.

- fold higher specific activity after antigen affinity purification [1]: ~10 fold
- fold improvement of specific binding after antigen affinity purification [1]: 10 fold
B1: MIN-C2 scFv (heavy chain variable-linker-light chain variable, C-terminal poly-histidine tag) (scFv)
scFv: EVQLEESGGGLVKPGGSLKLSCAASGFTFSGYAMSWVRQTPEKRLEWVATISSGGTYIYYPDSVKGRFTISRDNAKNTLYLQMSSLRSEDTAMYYCARLGGDNYYEYFDVWGAGTTVTVSSAKTTPPSVYGGGGSGGGGSGGGGSDIVITQSTASLGVSLGQRATISCRASKSVSTSGYSYMHWYQQRPGQPPKLLIYLASNLESGVPARFSGSGSGTDFTLNIHPVEEEDAATYYCQHSRELPFTFGGGTKLEIKRADAAPTVSVDHHHHHH
notes: part was further purified on a PSMGFR peptide column; also called scFv protein; recombinant scFv

- binding result [2]: binds
B2: MIN-C2 Fab (papain digestion of MIN-C2 antibody) (Fab, V domains shown)
VH: EVQLEESGGGLVKPGGSLKLSCAASGFTFSGYAMSWVRQTPEKRLEWVATISSGGTYIYYPDSVKGRFTISRDNAKNTLYLQMSSLRSEDTAMYYCARLGGDNYYEYFDVWGAGTTVTVSS
VL: DIVITQSTASLGVSLGQRATISCRASKSVSTSGYSYMHWYQQRPGQPPKLLIYLASNLESGVPARFSGSGSGTDFTLNIHPVEEEDAATYYCQHSRELPFTFGGGTKLEIKR
notes: Enzymatic Fab of about 50 kD made by papain digestion of the parent mAb; also called monovalent form of MIN-C2
